What was measured:
[1] = target: T1, soluble human RANKL protein (human, UniProt O14788 140-317, limits assumed, biotinylated with NHS-biotin at a 20:1 molar ratio of NHS-biotin to protein (competition ELISA only)); experiment: competition ELISA: biotinylated shRANKL (0.43 nM) binding to coated RANK-Fc, competitor in solution
T1 construct: Soluble form; also called shRANKL; sRANKL
T1 sequence (looked up): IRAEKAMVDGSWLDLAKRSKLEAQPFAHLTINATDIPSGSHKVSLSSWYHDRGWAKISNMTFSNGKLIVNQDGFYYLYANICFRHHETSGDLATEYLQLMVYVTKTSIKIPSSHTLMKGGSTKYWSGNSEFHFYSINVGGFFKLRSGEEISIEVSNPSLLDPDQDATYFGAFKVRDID
Description: A. A competition ELISA was established using a human RANK-Fc fusion protein coated on plastic and a biotinylated soluble human RANKL protein for detection in solution. The RANK-Fc and RANKL proteins were produced in CHO cells and Pichia pastoris, respectively, and purified to >90% homogeneity. The shRANKL (soluble, human RANKL) protein was biotinylated at a 20:1 molar ratio of NHS-biotin to protein (Pierce, Rockford, Ill.) according to the manufacturer's specifications. 96-well ELISA plates were coated overnight at 4° C. with 50 ng/well […] RANK-Fc in pH 9.6 carbonate-bicarbonate buffer. Plates were washed in pH 7.4 Tris-Saline buffer containing 0.1% Tween 20 and blocked for 2 h at RT in 1% BSA/PBS. Competitor proteins (RANK-Fc; death receptor 5 (DR5)-Fc; OPG-Fc; RANKL mAb 2A4) were diluted in 0.01% Tween 20/PBS and added to wells prior to the addition of biotinylated shRANKL (0.43 nM) and the combined samples were incubated for 2 hrs at room temperature. The amount of biotinylated shRANKL bound to coated RANK-Fc (±competitor) was measured using alkaline phosphatase conjugated streptavidin. The substrate for signal detection was 105 PNPP (Pierce Inc., Rockford, Ill.) and absorbance measured at 405 nm using a Spectra Max 340 plate reader.

[2] = target: T1, soluble human RANKL protein; experiment: cell-based or functional assay
murine RANK-L = target: T2, murine RANK-L (murine, UniProt O35235 158-316, limits assumed); experiment: not described
T2 sequence (looked up): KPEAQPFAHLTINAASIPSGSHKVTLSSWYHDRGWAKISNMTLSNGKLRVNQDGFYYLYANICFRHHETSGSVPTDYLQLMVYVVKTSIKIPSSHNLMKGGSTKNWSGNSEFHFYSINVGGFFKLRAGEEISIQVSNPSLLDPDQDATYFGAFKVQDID

[3] = target: T1, soluble human RANKL protein; experiment: not described with the number; paragraph 33 defines high affinity as determined by optical biosensor analysis

Binder | IC50 [1] [nM] | IC50, formation of multinuclear cells, human monocyte osteoclastogenesis with 50 ng/ml human soluble RANKL plus M-CSF [2] [µg/mL] | binding result (murine RANK-L) | Kd [3] [nM]
OPG-Fc (Fc fusion, UniProt O00300 22-194, looked up, Construct not described; also called osteoprotegerin-Fc; not shown: Fc part; not described) ETFPPKYLHYDEETSHQLLCDKCPPGTYLKQHCTAKWKTVCAPCPDHYYTDSWHTSDECLYCSPVCKELQYVKQECNRTHNRVCECKEGRYLEIEFCLKHRSCPPGFGVVQAGTPERNTVCKRCPDGFFSNETSSKAPCRKHTNCSVFGLLLTQKGNATHDNICSGNSESTQK | ~0.5 |  |  | 
mouse monoclonal antibody 2A4 (antibody, mouse IgG2a, V domains shown, the latter are followed; also called mAb 2A4; 2A4 Mab) VH: EVQLVESGGDLVKPGGSLKLSCAASGFTFSRYGMSWVRQTPDKRLEWVATISSGGSYIYYPDSVKGRFTISRDNAKNTLYLQMSSLKSEDTAMYYCARLDGYNYRWYFDVWGTGTTVTVSS VL: DIVMTQSHKFMSTSVGDRVSITCKASQDVSTAVAWYQQKPGQSPKLLIYSASYRYTGVPDRFTGSGSGTDFTFTISSVQAEDLAVYYCQQHYSSPRTFGGGTNLEIK | ~2 | ~4 | no binding | ~0.1
human RANK-Fc fusion protein (Fc fusion, UniProt Q9Y6Q6 30-212, looked up, Produced in CHO cells; not shown: Fc part) IAPPCTSEKHYEHLGRCCNKCEPGKYMSSKCTTTSDSVCLPCGPDEYLDSWNEEDKCLLHKVCDTGKALVAVVAGNSTTPRRCACTAGYHWSQDCECCRRNTECAPGLGAQHPLQLNKDTVCKPCLAGYFSDAFSSTDKCRPWTNCTFLGKRVEHHGTEKSDAVCSSSLPARKPPNEPHVYLP | ~6 | ~0.5 |  | 

— patent US20030215450A1 (published 2003)
